From the supplement of paper PMC10567573

B1: HESX1 (parent)
chain: QKKDCVPLMKPHRPWADTCSSSGK
B2: ESRRA (parent)
chain: SLPLQDELAFAEDLVLDEEGARAA

Variants of: B1
Experiment: protein stability index of a GFP-peptide fusion (GPS, HEK-293T) (PSI 1-6); higher = more stable
Details: c terminus: a fixed tail appended
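Further: lentivirally expressed fusions sorted by FACS into six bins by GFP to DsRed ratio, PSI derived from sequencing read proportions per bin multiplied by bin number.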

Row | Variant | protein stability index
1 | QKKDCVPLMKPHRPWADTCSSSMK | 3.08
2 | QKKDCVPLMKPHRPWADTCSSSVK | 2.33
3 | QKKDCVPLMKPHRPWADTCSSSHK | 2.62

Variants of: B2
Experiment: as above
Details: c terminus: a fixed tail appended

Row | Variant | protein stability index
4 | SHPLQDELAFAEDLVLDEEGARAA | 2.78
5 | SEPLQDELAFAEDLVLDEEGARAA | 5.29
6 | SIPLQDELAFAEDLVLDEEGARAA | 2.78
7 | SYPLQDELAFAEDLVLDEEGARAA | 3.22
8 | SKPLQDELAFAEDLVLDEEGARAA | 4.4
9 | SAPLQDELAFAEDLVLDEEGARAA | 4.07
10 | SCPLQDELAFAEDLVLDEEGARAA | 2.32
11 | SNPLQDELAFAEDLVLDEEGARAA | 3.86
12 | SRPLQDELAFAEDLVLDEEGARAA | 2.55
13 | SQPLQDELAFAEDLVLDEEGARAA | 3.95
14 | SVPLQDELAFAEDLVLDEEGARAA | 3.26
15 | SDPLQDELAFAEDLVLDEEGARAA | 5.55
16 | SGPLQDELAFAEDLVLDEEGARAA | 4.81
17 | SPPLQDELAFAEDLVLDEEGARAA | 4.27
18 | SSPLQDELAFAEDLVLDEEGARAA | 4.21
19 | SMPLQDELAFAEDLVLDEEGARAA | 3.48
20 | STPLQDELAFAEDLVLDEEGARAA | 3.52
21 | SFPLQDELAFAEDLVLDEEGARAA | 3.06
22 | SWPLQDELAFAEDLVLDEEGARAA | 2.69
23 | SLPLHDELAFAEDLVLDEEGARAA | 3.66
24 | SLPLRDELAFAEDLVLDEEGARAA | 3.37
25 | SLPLGDELAFAEDLVLDEEGARAA | 4.43
26 | SLPLSDELAFAEDLVLDEEGARAA | 4.79

Row | Variant | protein stability index
27 | SLPLLDELAFAEDLVLDEEGARAA | 3.02
28 | SLPLADELAFAEDLVLDEEGARAA | 3.25
29 | SLPLKDELAFAEDLVLDEEGARAA | 2.79
30 | SLPLPDELAFAEDLVLDEEGARAA | 4.94
31 | SLPLMDELAFAEDLVLDEEGARAA | 2.48
32 | SLPLIDELAFAEDLVLDEEGARAA | 3.37
33 | SLPLFDELAFAEDLVLDEEGARAA | 3.85
34 | SLPLDDELAFAEDLVLDEEGARAA | 5.44
35 | SLPLCDELAFAEDLVLDEEGARAA | 3.7
36 | SLPLEDELAFAEDLVLDEEGARAA | 5.48
37 | SLPLNDELAFAEDLVLDEEGARAA | 3.77
38 | SLVLQDELAFAEDLVLDEEGARAA | 4.91
39 | SLTLQDELAFAEDLVLDEEGARAA | 4.8
40 | SLRLQDELAFAEDLVLDEEGARAA | 4.46
41 | SLCLQDELAFAEDLVLDEEGARAA | 4.78
42 | SLELQDELAFAEDLVLDEEGARAA | 4.97
43 | SLWLQDELAFAEDLVLDEEGARAA | 4.32
44 | SLLLQDELAFAEDLVLDEEGARAA | 4.84
45 | SLALQDELAFAEDLVLDEEGARAA | 4.97
46 | SLHLQDELAFAEDLVLDEEGARAA | 4.45
47 | SLQLQDELAFAEDLVLDEEGARAA | 4.21
48 | SLMLQDELAFAEDLVLDEEGARAA | 4.18
49 | SLSLQDELAFAEDLVLDEEGARAA | 5.28

Row | Variant | protein stability index
50 | SLDLQDELAFAEDLVLDEEGARAA | 4.14
51 | SLFLQDELAFAEDLVLDEEGARAA | 4.6
52 | SLKLQDELAFAEDLVLDEEGARAA | 5.08
53 | SLGLQDELAFAEDLVLDEEGARAA | 4.7
54 | SLNLQDELAFAEDLVLDEEGARAA | 4.08
55 | SLYLQDELAFAEDLVLDEEGARAA | 4.61
56 | SLILQDELAFAEDLVLDEEGARAA | 3.93
57 | RLPLQDELAFAEDLVLDEEGARAA | 3.28
58 | YLPLQDELAFAEDLVLDEEGARAA | 2.78
59 | ALPLQDELAFAEDLVLDEEGARAA | 3.94
60 | TLPLQDELAFAEDLVLDEEGARAA | 3.01
61 | QLPLQDELAFAEDLVLDEEGARAA | 3.09
62 | NLPLQDELAFAEDLVLDEEGARAA | 2.81
63 | DLPLQDELAFAEDLVLDEEGARAA | 3.07
64 | ELPLQDELAFAEDLVLDEEGARAA | 2.94
65 | KLPLQDELAFAEDLVLDEEGARAA | 3.09
66 | ILPLQDELAFAEDLVLDEEGARAA | 3.03
67 | MLPLQDELAFAEDLVLDEEGARAA | 2.66
68 | HLPLQDELAFAEDLVLDEEGARAA | 2.89
69 | LLPLQDELAFAEDLVLDEEGARAA | 2.26
70 | GLPLQDELAFAEDLVLDEEGARAA | 2.81
71 | CLPLQDELAFAEDLVLDEEGARAA | 2.93
72 | WLPLQDELAFAEDLVLDEEGARAA | 2.73

Row | Variant | protein stability index
73 | PLPLQDELAFAEDLVLDEEGARAA | 3.54
74 | FLPLQDELAFAEDLVLDEEGARAA | 2.48
75 | VLPLQDELAFAEDLVLDEEGARAA | 2.89
76 | SLPQQDELAFAEDLVLDEEGARAA | 5.64
77 | SLPMQDELAFAEDLVLDEEGARAA | 3.51
78 | SLPWQDELAFAEDLVLDEEGARAA | 5.32
79 | SLPKQDELAFAEDLVLDEEGARAA | 5.08
80 | SLPRQDELAFAEDLVLDEEGARAA | 5.1
81 | SLPGQDELAFAEDLVLDEEGARAA | 5.68
82 | SLPAQDELAFAEDLVLDEEGARAA | 5.45
83 | SLPDQDELAFAEDLVLDEEGARAA | 4.97
84 | SLPTQDELAFAEDLVLDEEGARAA | 5.43
85 | SLPPQDELAFAEDLVLDEEGARAA | 5.46
86 | SLPYQDELAFAEDLVLDEEGARAA | 5.26
87 | SLPFQDELAFAEDLVLDEEGARAA | 4.96
88 | SLPEQDELAFAEDLVLDEEGARAA | 5.59
89 | SLPHQDELAFAEDLVLDEEGARAA | 5.41
90 | SLPIQDELAFAEDLVLDEEGARAA | 4.43
91 | SLPSQDELAFAEDLVLDEEGARAA | 5.39
92 | SLPCQDELAFAEDLVLDEEGARAA | 5.1
93 | SLPNQDELAFAEDLVLDEEGARAA | 5.36
94 | SLPVQDELAFAEDLVLDEEGARAA | 5.02
